Literature values in article PMC5855614.
pKd: −log10 of the molar value.

Target: Galectin-3 (Homo sapiens) (UniProt P17931)
Sequence (P17931 2-250): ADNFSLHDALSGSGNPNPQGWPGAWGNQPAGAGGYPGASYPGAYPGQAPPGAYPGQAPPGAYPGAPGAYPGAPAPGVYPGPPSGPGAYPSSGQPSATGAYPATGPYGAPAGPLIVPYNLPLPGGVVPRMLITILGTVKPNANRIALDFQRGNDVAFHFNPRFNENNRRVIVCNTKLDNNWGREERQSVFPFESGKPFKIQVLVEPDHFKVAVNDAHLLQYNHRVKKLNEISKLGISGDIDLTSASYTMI

pKd: 7.14
Substance: G3-C12
